Measured values reported in patent US20240392020A1 (JIANGSU HENGRUI PHARMACEUTICALS, published 2024).

T1: B7H3 on the recombinant cell line CT26-B7H3 (UniProt Q5ZPR3 29-534, limits assumed)
T1 construct: whole, on cells
T1 sequence (looked up): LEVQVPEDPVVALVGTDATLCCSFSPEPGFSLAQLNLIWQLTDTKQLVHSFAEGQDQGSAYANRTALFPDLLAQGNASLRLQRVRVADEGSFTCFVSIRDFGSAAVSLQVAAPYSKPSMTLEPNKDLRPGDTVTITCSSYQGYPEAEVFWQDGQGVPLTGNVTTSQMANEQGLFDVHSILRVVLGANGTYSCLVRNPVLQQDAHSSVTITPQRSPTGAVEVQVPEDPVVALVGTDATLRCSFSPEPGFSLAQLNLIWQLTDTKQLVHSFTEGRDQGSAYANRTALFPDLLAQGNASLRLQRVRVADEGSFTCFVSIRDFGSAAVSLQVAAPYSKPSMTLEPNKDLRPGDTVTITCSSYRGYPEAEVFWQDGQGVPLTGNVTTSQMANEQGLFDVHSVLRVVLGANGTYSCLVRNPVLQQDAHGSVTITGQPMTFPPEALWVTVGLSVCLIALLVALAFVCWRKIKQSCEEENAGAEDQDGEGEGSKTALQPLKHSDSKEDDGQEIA

B1: R7 (antibody)
heavy: not shown
light: DIQMTQSPSSLSASVGDRVTITCLASEGISSYLAWYQQKPGKAPKLLIYGANSLQTGVPSRFSGSGSATDYTLTISSLQPEDFATYYCQQSYKFPNTFGQGTKVEVKSGAPRFLTRPKAFVVSVGKDATLSCQIVGNPTPQVSWEKDQQPVAAGARFRLAQDGDLYRLTILDLALGDSGQYVCRARNAIGEAFACVGLQVDAEA
B2: R8 (antibody)
heavy: not shown
light: DIQMTQSPSSLSASVGDRVTITCLASEGISSYLAWYQQKPGKAPKLLIYGANSLQTGVPSRFSGSGSATDYTLTISSLQPEDFATYYCQQSYKFPNTFGQGTKVEVKSGCPRFLTRPKAFVVSVGKDATLSCQIVGNPTPQVSWEKDQQPVAAGARFRLAQDGDLYRLTILDLALGDSGQYVCRARNAIGEAFAAVGLQVDAEA
B3: R9 (antibody)
heavy: not shown
light: DIQMTQSPSSLSASVGDRVTITCLASEGISSYLAWYQQKPGKAPKLLIYGANSLQTGVPSRFSGSGSATDYTLTISSLQPEDFATYYCQQSYKFPNTFGQGTKVEVKSGAPRFLTCPKAFVVSVGKDATLSCQIVGNPTPQVSWEKDQQPVAAGARFRLAQDGDLYRLTILDLALGDSGQYVCRARNAIGEAFAAVGLQVDAEA
B4: R11 (antibody)
heavy: not shown
light: DIQMTQSPSSLSASVGDRVTITCLASEGISSYLAWYQQKPGKAPKLLIYGANSLQTGVPSRFSGSGSATDYTLTISSLQPEDFATYYCQQSYKFPNTFGQGTKVEVKSGCPRFLTRPKAFVVSVGKDATLSSQIVGNPTPQVSWEKDQQPVAAGARFRLAQDGDLYRLTILDLALGDSGQYVSRARNAIGEAFAAVGLQVDAEA
B5: R12 (antibody)
heavy: not shown
light: DIQMTQSPSSLSASVGDRVTITCLASEGISSYLAWYQQKPGKAPKLLIYGANSLQTGVPSRFSGSGSATDYTLTISSLQPEDFATYYCQQSYKFPNTFGQGTKVEVKSGAPRFLTCPKAFVVSVGKDATLSSQIVGNPTPQVSWEKDQQPVAAGARFRLAQDGDLYRLTILDLALGDSGQYVSRARNAIGEAFAAVGLQVDAEA
B6: H5 (antibody)
heavy: not shown
light: DIQMTQSPSSVSASVGDRVTITCRASQDIANYLSWYQQKPGKSPKLLIYGTSNLEVGVPSRFSGSRSGTDFTLTISSLQPEDFATYYCLQDKEFPRTFGGGTKVEIKSGAPRFLTRPKAFVVSVGKDATLSCQIVGNPTPQVSWEKDQQPVAAGARFRLAQDGDLYRLTILDLALGDSGQYVCRARNAIGEAFACVGLQVDAEA
B7: H6 (antibody)
heavy: not shown
light: DIQMTQSPSSVSASVGDRVTITCRASQDIANYLSWYQQKPGKSPKLLIYGTSNLEVGVPSRFSGSRSGTDFTLTISSLQPEDFATYYCLQDKEFPRTFGGGTKVEIKSGCPRFLTRPKAFVVSVGKDATLSCQIVGNPTPQVSWEKDQQPVAAGARFRLAQDGDLYRLTILDLALGDSGQYVCRARNAIGEAFAAVGLQVDAEA
B8: H7 (antibody)
heavy: not shown
light: DIQMTQSPSSVSASVGDRVTITCRASQDIANYLSWYQQKPGKSPKLLIYGTSNLEVGVPSRFSGSRSGTDFTLTISSLQPEDFATYYCLQDKEFPRTFGGGTKVEIKSGAPRFLTCPKAFVVSVGKDATLSCQIVGNPTPQVSWEKDQQPVAAGARFRLAQDGDLYRLTILDLALGDSGQYVCRARNAIGEAFAAVGLQVDAEA
B9: H8 (antibody)
heavy: not shown
light: DIQMTQSPSSVSASVGDRVTITCRASQDIANYLSWYQQKPGKSPKLLIYGTSNLEVGVPSRFSGSRSGTDFTLTISSLQPEDFATYYCLQDKEFPRTFGGGTKVEIKSGAPRFLTRPKAFVVSVGKDATLSSQIVGNPTPQVSWEKDQQPVAAGARFRLAQDGDLYRLTILDLALGDSGQYVSRARNAIGEAFACVGLQVDAEA
B10: H9 (antibody)
heavy: not shown
light: DIQMTQSPSSVSASVGDRVTITCRASQDIANYLSWYQQKPGKSPKLLIYGTSNLEVGVPSRFSGSRSGTDFTLTISSLQPEDFATYYCLQDKEFPRTFGGGTKVEIKSGCPRFLTRPKAFVVSVGKDATLSSQIVGNPTPQVSWEKDQQPVAAGARFRLAQDGDLYRLTILDLALGDSGQYVSRARNAIGEAFAAVGLQVDAEA
B11: H10 (antibody)
heavy: not shown
light: DIQMTQSPSSVSASVGDRVTITCRASQDIANYLSWYQQKPGKSPKLLIYGTSNLEVGVPSRFSGSRSGTDFTLTISSLQPEDFATYYCLQDKEFPRTFGGGTKVEIKSGAPRFLTCPKAFVVSVGKDATLSSQIVGNPTPQVSWEKDQQPVAAGARFRLAQDGDLYRLTILDLALGDSGQYVSRARNAIGEAFAAVGLQVDAEA
B12: H11 (antibody)
heavy: not shown
light: DIQMTQSPSSVSASVGDRVTITCRASQDIANYLSWYQQKPGKSPKLLIYGTSNLEVGVPSRFSGSRSGTDFTLTISSLQPEDFATYYCLQDKEFPRTFGGGTKVEIKQGSPPEFLRFPRPVRVVSGAEAELKCVVLGEPPPVVVWEKGGQQLAASERLSFPADGAEHGLLLTAALPTDAGCYVCRARNAAGEAYAAAAVTVLEPP
B13: H12 (antibody)
heavy: not shown
light: DIQMTQSPSSVSASVGDRVTITCRASQDIANYLSWYQQKPGKSPKLLIYGTSNLEVGVPSRFSGSRSGTDFTLTISSLQPEDFATYYCLQDKEFPRTFGGGTKVEIKQGSPPEFLRFPRPVRVVSGAEAELKCVVLGEPPPVVVWEKGGQQLAASERLSFPADGAEHGLLLTAALPTDAGVYVCRARNAACEAYAAAAVTVLEPP
B14: H13 (antibody)
heavy: not shown
light: DIQMTQSPSSVSASVGDRVTITCRASQDIANYLSWYQQKPGKSPKLLIYGTSNLEVGVPSRFSGSRSGTDFTLTISSLQPEDFATYYCLQDKEFPRTFGGGTKVEIKQGSPPEFLRFPRPVRVVSGAEAELKCVVLGEPPPVVVWEKGGQQLAASERLSFPADGAEHGLLLTAALPTDAGVYVCRARNAAGECYAAAAVTVLEPP
B15: H14 (antibody)
heavy: not shown
light: DIQMTQSPSSVSASVGDRVTITCRASQDIANYLSWYQQKPGKSPKLLIYGTSNLEVGVPSRFSGSRSGTDFTLTISSLQPEDFATYYCLQDKEFPRTFGGGTKVEIKQGSPPEFLRFPRPVRVVSGAEAELKSVVLGEPPPVVVWEKGGQQLAASERLSFPADGAEHGLLLTAALPTDAGCYVSRARNAAGEAYAAAAVTVLEPP
B16: H15 (antibody)
heavy: not shown
light: DIQMTQSPSSVSASVGDRVTITCRASQDIANYLSWYQQKPGKSPKLLIYGTSNLEVGVPSRFSGSRSGTDFTLTISSLQPEDFATYYCLQDKEFPRTFGGGTKVEIKQGSPPEFLRFPRPVRVVSGAEAELKSVVLGEPPPVVVWEKGGQQLAASERLSFPADGAEHGLLLTAALPTDAGVYVSRARNAAGECYAAAAVTVLEPP
B17: F18 (antibody)
heavy: not shown
light: DTVVTQEPSFSVSPGGTVTLTCGLSSGSVSTSHYPSWYQQTPGQAPRMLIYNTNTRSSGVPDRFSGSILGNKAALTITGAQADDESDYYCAIHVDRDIWVFGGGTKLTVLSGAPRFKTRPKAFVVSVGKDATLSSQIVGNPTPQVSWEKDQQPVAAGARFRLAQDGDLYRLHILDLALGDSGQYVSRARNAIGEAFACVGLQVDAEA
B18: F20 (antibody)
heavy: not shown
light: DTVVTQEPSFSVSPGGTVTLTCGLSSGSVSTSHYPSWYQQTPGQAPRMLIYNTNTRSSGVPDRFSGSILGNKAALTITGAQADDESDYYCAIHVDRDIWVFGGGTKLTVLSGAPRFLTRPLAFVVSVGKDATLSSQIVGNPTPQVSWEKDQQPVAAGARFRLAQDGDLYRLKILDLALGDSGQYVSRARNAIGEAFACVGLQVDAEA
B19: F22 (antibody)
heavy: not shown
light: DTVVTQEPSFSVSPGGTVTLTCGLSSGSVSTSHYPSWYQQTPGQAPRMLIYNTNTRSSGVPDRFSGSILGNKAALTITGAQADDESDYYCAIHVDRDIWVFGGGTKLTVLSGAPRFLTRPLAFVVSVGKDATLSSQIVGNPTPQVSWEKDQQPVAAGARFRLAQDGDLYRLHILDLALGDSGQYVSRARNAIGEAFACVGLQVDAEA
B20: F16 (antibody)
heavy: not shown
light: DTVVTQEPSFSVSPGGTVTLTCGLSSGSVSTSHYPSWYQQTPGQAPRMLIYNTNTRSSGVPDRFSGSILGNKAALTITGAQADDESDYYCAIHVDRDIWVFGGGTKLTVLSGAPRFLTRPKAFVVSVGKDATLSSQIVGNPTPQVSWEKDQQPVAAGARFRLAQDGDLYRLTILDLALGDSGQYVSRARNAIGEAFACVGLQVDAEA
B21: F17 (antibody)
heavy: not shown
light: DTVVTQEPSFSVSPGGTVTLTCGLSSGSVSTSHYPSWYQQTPGQAPRMLIYNTNTRSSGVPDRFSGSILGNKAALTITGAQADDESDYYCAIHVDRDIWVFGGGTKLTVLSGAPRFKTRPKAFVVSVGKDATLSSQIVGNPTPQVSWEKDQQPVAAGARFRLAQDGDLYRLKILDLALGDSGQYVSRARNAIGEAFACVGLQVDAEA
B22: F19 (antibody)
heavy: not shown
light: DTVVTQEPSFSVSPGGTVTLTCGLSSGSVSTSHYPSWYQQTPGQAPRMLIYNTNTRSSGVPDRFSGSILGNKAALTITGAQADDESDYYCAIHVDRDIWVFGGGTKLTVLSGAPRFKTRPKAFVVSVGKDATLSSQIVGNPTPQVSWEKDQQPVAAGARFRLAQDGDLYRLHILDLALGDSGQYVSRARNAIGEAFACVGLQVDAEA

The binders below were run against T2, hIL-5 (human, UniProt P05113 20-134) (assay: ELISA).
T2 construct: bought
Method: For an antibody targeting a soluble protein, the binding activity of the antibody against the soluble protein was detected by ELISA. […] After the blocking was completed, the blocking solution was discarded; and the plate was washed 3 times with a PBST buffer (pH 7.4, PBS containing 0.1% tween-20). 100 μL of the antibody solution diluted in a gradient was added to each well, and the mixture was incubated at 37° C. for 1 h. After the incubation was completed, the plate was washed 3 times with PBST. […] The plate was washed 3 times with PBST. […] The reaction was stopped by adding 50 μL of 1 M H₂SO₄ to each well. The absorbance values at 450 nm were read on a microplate reader, the binding curves of the antibodies to an antigen were fitted with software, and the EC₅₀ values were calculated.
An EC50 of 4.89 nM was found for B1 in this work.
An EC50 of 3.84 nM was found for B2 in this work.
An EC50 of 3.95 nM was found for B3 in this work.
An EC50 of 3.3 nM was found for B4 in this work.
An EC50 of 4.36 nM was found for B5 in this work.
An EC50 of 3.4 nM was found for B6 in this work.
An EC50 of 2.1 nM was found for B7 in this work.
An EC50 of 2.7 nM was found for B8 in this work.
An EC50 of 2.11 nM was found for B9 in this work.
An EC50 of 2.92 nM was found for B10 in this work.
An EC50 of 2.86 nM was found for B11 in this work.
An EC50 of 3.38 nM was found for B12 in this work.
An EC50 of 4.34 nM was found for B13 in this work.
An EC50 of 3.56 nM was found for B14 in this work.
An EC50 of 2.61 nM was found for B15 in this work.
An EC50 of 4.26 nM was found for B16 in this work.

What follows are binders tested against T1, B7H3 on the recombinant cell line … (assay: FACS, CT26-B7H3 cells).
An EC50 of 3.9 nM was found for B17 in this work.
An EC50 of 1.9 nM was found for B18 in this work.
An EC50 of 2.4 nM was found for B19 in this work.
An EC50 of 2 nM was found for B20 in this work.
An EC50 of 4.8 nM was found for B21 in this work.
An EC50 of 2.2 nM was found for B22 in this work.
